The target in assay [1] is T1, human NKG2D-Fc (human, UniProt P26718 78-216, limits assumed).
T1 construct: not shown: Fc part
T1 sequence (looked up): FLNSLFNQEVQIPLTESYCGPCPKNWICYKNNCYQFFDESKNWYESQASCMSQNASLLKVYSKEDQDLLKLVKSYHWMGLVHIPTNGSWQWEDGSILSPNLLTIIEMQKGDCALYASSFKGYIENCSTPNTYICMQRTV
As to the kind of experiment: phage ELISA: ULBP3 variant displayed on phage titrated against NKG2D. In general terms: In an ELISA, binding on a coated surface is turned into a signal by an enzyme label.

For assay [2], the target named is T2, NKG2D on the human NK cell line NKL (human, UniProt P26718 1-216).
T2 sequence (looked up): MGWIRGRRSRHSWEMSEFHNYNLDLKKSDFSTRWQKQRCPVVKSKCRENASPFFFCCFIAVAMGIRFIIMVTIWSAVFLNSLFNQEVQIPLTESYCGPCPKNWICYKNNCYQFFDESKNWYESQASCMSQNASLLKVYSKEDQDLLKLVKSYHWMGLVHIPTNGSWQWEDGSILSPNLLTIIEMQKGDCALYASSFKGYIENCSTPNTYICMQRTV
As to the kind of experiment: cell-based or functional assay.

Assay [3] addresses T3, biotinylated human NKG2D (human, UniProt P26718 78-216, limits assumed, biotinylated (site not stated)).
T3 construct: also called recombinant biotinylated NKG2D
T3 sequence (looked up): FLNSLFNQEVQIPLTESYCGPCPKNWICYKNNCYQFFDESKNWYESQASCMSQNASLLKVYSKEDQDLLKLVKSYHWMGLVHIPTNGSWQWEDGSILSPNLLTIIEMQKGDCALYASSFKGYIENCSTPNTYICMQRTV
As to the kind of experiment: biolayer interferometry (Octet), biotinylated human NKG2D; Table 5 compared with Table 3. (BLI is a label-free optical method that tracks binding on a fibre tip over time.)

Assay [4] addresses T3, biotinylated human NKG2D. The experiment in a line: biolayer interferometry (Octet), surface-coated biotinylated human NKG2D, titration 1-100 nM.
Protocol: (§1) In order to characterize the NKG2D binding affinities, both the on-rates and off-rates for the three α1-α2 variant NKG2DLs binding to surface-coated biotinylated human NKG2D were measured using biolayer interferometry (Octet). Binding titrations were performed for each protein using a titration range of 1-100 nM, and the kinetic data were fitted to obtain on-rates, off-rates, and equilibrium binding constants.
Assay [5] addresses T3, biotinylated human NKG2D. The experiment in a line: biolayer interferometry (Octet), Kd = kOFF/kON.
Protocol: as §1
Assay [6] deals with T1, human NKG2D-Fc. The experiment in a line: phage ELISA: ULBP2 variant displayed on phage titrated against NKG2D.

B1: K165S (designed binder)
α1-α2 domain displayed on M13 phage (pIII fusion): AAEPHSLWYNFTIIHLPRHGQQWCEVQSQVDQKNFLSYDCGSDKVLSMGHLEEQLYATDAWGKQLEMLREVGQRLRLELADTELEDFTPSGPLTLQVRMSCESEADGYIRGSWQFSFDGRKFLLFDSNNRKWTVVHAGARRMKEKWEKDSGLTTFFKMVSMRDCSSWLRDFLMHRKKRLEPTAPPMV
Take B1: in the assay with human NKG2D-Fc [1], the “EC50 (read off the curve)” value was ~0.002 OD268 (phage).

B2: K165P (designed binder)
α1-α2 domain displayed on M13 phage (pIII fusion): AAEPHSLWYNFTIIHLPRHGQQWCEVQSQVDQKNFLSYDCGSDKVLSMGHLEEQLYATDAWGKQLEMLREVGQRLRLELADTELEDFTPSGPLTLQVRMSCESEADGYIRGSWQFSFDGRKFLLFDSNNRKWTVVHAGARRMKEKWEKDSGLTTFFKMVSMRDCPSWLRDFLMHRKKRLEPTAPPMV
With B2, the “EC50 (read off the curve)” value in the assay with human NKG2D-Fc [1] was ~0.004 OD268 (phage).

B3: R162G (designed binder)
α1-α2 domain displayed on M13 phage (pIII fusion): AAEPHSLWYNFTIIHLPRHGQQWCEVQSQVDQKNFLSYDCGSDKVLSMGHLEEQLYATDAWGKQLEMLREVGQRLRLELADTELEDFTPSGPLTLQVRMSCECEADGYIRGSWQFSFDGRKFLLFDSNNRKWTVVHAGARRMKEKWEKDSGLTTFFKMVSMGDCKSWLRDFLMHRKKRLEPTAPPMV
Turning to B3, the “EC50 (read off the curve)” value with human NKG2D-Fc [1] was ~0.005 OD268 (phage).

B4: α1-α2 variant 16 (designed binder)
chain: EPHSLRYNLTVLSWDGSVQSGFLTEVHLDGQPFLRCDRQKCRAKPQGQWAEDVLGNKTWDRETRDLTGWGKDLRMTLAHIKDQKEGLHSLQEIRVCEIHEDNSTRSSQHFYYDGELFLSQNLETLEWTMPQSSRAQTLAMNVRNFLKEDAMETDTHYHAMRADCLQELRRYLKSGVVLRRTVPPMVQVTRSEASGGSGDRVTITCRASQDVSTAVAWYQQKPGKAPKLLIYSASFLYSGVPSRFSGSGSGTDFTLTISSLQPEDFATYYCQQSYTTPPTFGQGTKVEIKGGSSRSSSSGGGGSGGGGEVQLVESGGGLVQPGGSLRLSCAASGFTFTSTGISWVRQAPGKGLEWVGRIYPTNGSTNYADSVKGRFTISADTSKNTAYLQMNSLRAEDTAVYYCARTYGIYDLYVDYTEYVMDYWGQGTLVTVSSGGSSRSSSSGGGGSGGGGDIQMTQSPSSLSASGGSGQITVTCRASGFYPWNITLSWRQDGVSLSHDTQQWGDVLPDGQGTYQTWVATRISQGEEQRFTCYMEHSGQHSTHPVPSGKGSHHHHHH
On to B4, for which the “killing of FGFR3-expressing P815 target cells by NKL cells (calcein-release assay), fold over WT at 0.78 nM” value in assay [2] is approximately 15 fold.

B5: α1-α2 variant 25 (designed binder)
chain: EPHSLRYNLTVLSWDGSVQSGFLTEVHLDGQPFLRCDRQKCRAKPQGQWAEDVLGNKTWDRETRDLTGWGKDLRMTLAHIKDQKEGLHSLQEIRVCEIHEDNSTRSSQHFYYDGELFLSQNLETLEWTMPQSSRAQTLAMNVRNFLKEDAMETDTHYHAMRADCLSELRRYLKSGVVLRRTVPPMVQVTRSEASGGSGDRVTITCRASQDVSTAVAWYQQKPGKAPKLLIYSASFLYSGVPSRFSGSGSGTDFTLTISSLQPEDFATYYCQQSYTTPPTFGQGTKVEIKGGSSRSSSSGGGGSGGGGEVQLVESGGGLVQPGGSLRLSCAASGFTFTSTGISWVRQAPGKGLEWVGRIYPTNGSTNYADSVKGRFTISADTSKNTAYLQMNSLRAEDTAVYYCARTYGIYDLYVDYTEYVMDYWGQGTLVTVSSGGSSRSSSSGGGGSGGGGDIQMTQSPSSLSASGGSGQITVTCRASGFYPWNITLSWRQDGVSLSHDTQQWGDVLPDGQGTYQTWVATRISQGEEQRFTCYMEHSGQHSTHPVPSGKGSHHHHHH
notes: Expressed in HEK293 (Expi293)
As for B5, the “fold enhancement in equilibrium binding affinity against variant 16” value in the assay with biotinylated human NKG2D [3] amounted to 8 fold. Also, in assay [2], the “EC50 for cell killing, fold improvement over variant 16” value was approximately 5 fold and the “killing of FGFR3-expressing P815 target cells by NKL cells (calcein-release assay), fold over variant 16 at 0.2 nM” value is approximately 3 fold. In the assay with biotinylated human NKG2D [4], this molecule yielded a koff of 2.9e-05 s⁻¹ and a kon of 470000 M⁻¹ s⁻¹. Besides, in the assay with biotinylated human NKG2D [5], the Kd was 0.062 nM.

B6: α1-α2 variant 20 (designed binder)
chain: EPHSLRYNLTVLSWDGSVQSGFLTEVHLDGQPFLRCDRQKCRAKPQGQWAEDVLGNKTWDRETRDLTAWGKDLRMTLAHIKDQKEGLHSLQEIRVCEIHEDNSTRSSQHFYYDGELFLSQNLETLEWTMPQSSRAQTLAMNVRNFLKEDAMQTDTHYRAMHADCLFELRRYLKSGVVLRRTVPPMVQVTRSEASGGSGDRVTITCRASQDVSTAVAWYQQKPGKAPKLLIYSASFLYSGVPSRFSGSGSGTDFTLTISSLQPEDFATYYCQQSYTTPPTFGQGTKVEIKGGSSRSSSSGGGGSGGGGEVQLVESGGGLVQPGGSLRLSCAASGFTFTSTGISWVRQAPGKGLEWVGRIYPTNGSTNYADSVKGRFTISADTSKNTAYLQMNSLRAEDTAVYYCARTYGIYDLYVDYTEYVMDYWGQGTLVTVSSGGSSRSSSSGGGGSGGGGDIQMTQSPSSLSASGGSGQITVTCRASGFYPWNITLSWRQDGVSLSHDTQQWGDVLPDGQGTYQTWVATRISQGEEQRFTCYMEHSGQHSTHPVPSGKGSHHHHHH
notes: Expressed in HEK293 (Expi293)
As to B6, in the assay with biotinylated human NKG2D [4], the koff stood at 3e-05 s⁻¹ and the association rate constant (kon) amounted to 360000 M⁻¹ s⁻¹. In the assay with biotinylated human NKG2D [5], this molecule yielded an equilibrium dissociation constant (Kd) of 0.083 nM.

B7: α1-α2 variant 18 (designed binder)
chain: EPHSLRYNLTVLSWDGSVQPGFLTEVHLDGQPFLRCDRQKCRAKPQGQWAEDVLGNKTWDRETRDLTLWGKDLRMTLAHIKDQKEGLHSLQEIRVCEIHEDNSTRSSQHFYYDGELFLSQNLETLEWTMPQSSRAQTLAMNVRNFLKEDAMETDTHYHAMRADCLQELRRYLKSGVVLRRTVPPMVQVTRSEASGGSGDRVTITCRASQDVSTAVAWYQQKPGKAPKLLIYSASFLYSGVPSRFSGSGSGTDFTLTISSLQPEDFATYYCQQSYTTPPTFGQGTKVEIKGGSSRSSSSGGGGSGGGGEVQLVESGGGLVQPGGSLRLSCAASGFTFTSTGISWVRQAPGKGLEWVGRIYPTNGSTNYADSVKGRFTISADTSKNTAYLQMNSLRAEDTAVYYCARTYGIYDLYVDYTEYVMDYWGQGTLVTVSSGGSSRSSSSGGGGSGGGGDIQMTQSPSSLSASGGSGQITVTCRASGFYPWNITLSWRQDGVSLSHDTQQWGDVLPDGQGTYQTWVATRISQGEEQRFTCYMEHSGQHSTHPVPSGKGSHHHHHH
For the molecule B7, the “killing of FGFR3-expressing P815 target cells by NKL cells (calcein-release assay), fold over WT at 0.78 nM” value in assay [2] was approximately 15 fold.

B8: α1-α2 variant 17 (designed binder)
chain: EPHSLRYNLTVLSWDGSVQSGFLTEVHLDGQPFLRCDRQKCRAKPQGQWAEDVLGNKTWDRETRDLTLWGKDLRMTLAHIKDQKEGLHSLQEIRVCEIHEDNSTRSSQHFYYDGELFLSQNLETLEWTMPQSSRAQTLAMNVRNFLKEDAMETDTHYHAMRADCLQELRRYLKSGVVLRRTVPPMVQVTRSEASGGSGDRVTITCRASQDVSTAVAWYQQKPGKAPKLLIYSASFLYSGVPSRFSGSGSGTDFTLTISSLQPEDFATYYCQQSYTTPPTFGQGTKVEIKGGSSRSSSSGGGGSGGGGEVQLVESGGGLVQPGGSLRLSCAASGFTFTSTGISWVRQAPGKGLEWVGRIYPTNGSTNYADSVKGRFTISADTSKNTAYLQMNSLRAEDTAVYYCARTYGIYDLYVDYTEYVMDYWGQGTLVTVSSGGSSRSSSSGGGGSGGGGDIQMTQSPSSLSASGGSGQITVTCRASGFYPWNITLSWRQDGVSLSHDTQQWGDVLPDGQGTYQTWVATRISQGEEQRFTCYMEHSGQHSTHPVPSGKGSHHHHHH
On to B8, for which the “killing of FGFR3-expressing P815 target cells by NKL cells (calcein-release assay), fold over WT at 0.78 nM” value in assay [2] was approximately 15 fold.

B9: R80L (designed binder)
α1-α2 domain displayed on M13 phage (pIII fusion): AAEPHSLSYDITVIPKFRPGPRWCAVQGQVDEKTFLHYDCGNKTVTPVSPLGKKLNVTTAWKAQNPVLREVVDILTEQLLDIQLENYTPKEPLTLQARMSCEQKAEGHSSGSWQFSFDGQIFLLFDSEKRMWTTVHPGARKMKEKWENDKVVAMSFHYFSMGDCIGWLEDFLMGMDSTLEPSAGAPPMV
On to B9, for which the “EC50 (read off the curve)” value with human NKG2D-Fc [6] was ~0.01 OD268 (phage).

B10: V152L (designed binder)
α1-α2 domain displayed on M13 phage (pIII fusion): AAEPHSLSYDITVIPKFRPGPRWCAVQGQVDEKTFLHYDCGNKTVTPVSPLGKKLNVTTAWKAQNPVLREVVDILTEQLRDIQLENYTPKEPLTLQARMSCEQKAEGHSSGSWQFSFDGQIFLLFDSEKRMWTTVHPGARKMKEKWENDKVLAMSFHYFSMGDCIGWLEDFLMGMDSTLEPSAGAPPMV
Turning to B10, the “EC50 (read off the curve)” value in the assay with human NKG2D-Fc [6] was ~0.01 OD268 (phage).

B11: V151D (designed binder)
α1-α2 domain displayed on M13 phage (pIII fusion): AAEPHSLCYDITVIPKFRPGPRWCAVQGQVDEKTFLHYDCGNKTVTPVSPLGKKLNVTTAWKAQNPVLREVVDILTEQLRDIQLENYTPKEPLTLQARMSCEQKAEGHSSGSWQFSFDGQIFLLFDSEKRMWTTVHPGARKMKEKWENDKDVAMSFHYFSMGDCIGWLEDFLMGMDSTLEPSAGAPPMV
Consider B11, for which the “EC50 (read off the curve)” value with human NKG2D-Fc [6] is ~0.01 OD268 (phage).

Broadly, the koff is the first-order rate constant of dissociation. Read a high koff as fast dissociation. One may read the kon as the rate constant with which the complex forms. The low end stands for slow association, the high end for fast association. By Kd is commonly meant the free concentration of one partner at which half of the binding sites on the other are occupied at equilibrium, for simple one-to-one binding.

The record behind these values is patent US20160304578A1 (XYPHOS BIOSCIENCES, published 2016).
